Reference: patent US20230265208A1 (Dana-Farber, published 2023)
Numbering of substitutions follows the chain as printed.

What was measured:
[1] = target: T1, MUC1-ECD (human, UniProt P15941 1098-1155); experiment: SPR Biacore T200, antibody on chip, MUC1-ECD analyte, 1:1 fit
T1 construct: also called Ag MUC1-ECD; Antigen MUC1-ECD
T1 sequence: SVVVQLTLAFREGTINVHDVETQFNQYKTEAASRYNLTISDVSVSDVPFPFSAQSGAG

[2] = target: T2, WT p58/p62 heterodimer (human, UniProt P15941 1036-1097, limits assumed); experiment: left panel, Absorbance against Concentration (nM). The panel does not name the target. The axis points to the ELISA on WT p58/p62 of the legend, while the legend's first sentence speaks of MFI on HCT116 cells.
T2 construct: domain: 62 amino acid region (p62) of the SEA domain; Construct limits and tags are not described; also called p62/p58 heterodimer; WT protein
T2 sequence 1: T1 sequence
T2 sequence 2: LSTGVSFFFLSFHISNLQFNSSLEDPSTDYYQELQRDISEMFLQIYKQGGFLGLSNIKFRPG

[3] = target: T1, MUC1-ECD; experiment: SPR (Biacore), 1:1 fit; panel 'GO-702h'; analyte cell empty, antigen at 1.875-60 nM by the legend; same numbers as Table 7 prints for VH5 + VL3

B1: VH5 + VL3 (antibody, human IgG1, kappa, V domains shown)
VH: EVQLVQSGAEVKKPGESLKISCKGSGFTFNYFWIEWVRQMPGKGLEWMGEILPGTGSTNYNEKFKGQVTISADKSISTAYLQWSSLKASDTAMYYCARYDYTSSMDYWGQGTLVTVSS
VL: EIVLTQSPATLSLSPGERATLSCRASESVQYSGTSLMHWYQQKPGQAPRLLIYGASNVETGIPARFSGSGSGTDFTLTISSLEPEDFAVYYCQQNWKVPWTFGQGTKVEIKR
notes: Full-length humanized IgG expressed in HEK293 and purified on protein A. Constant regions not specified; also called #23 (inferred from 5x5 numbering)
B1 showed a Kd [1] of 1.55 nM, a koff [1] of 0.000844 s⁻¹ and a kon [1] of 545000 M⁻¹ s⁻¹.

B2: VH5 + VL2 (antibody, V domains shown)
VH: EVQLVQSGAEVKKPGESLKISCKGSGYAFSNFWMNWVRQMPGKGLEWMGQIYPGDGDTNYNGKFKGQVTISADKSISTAYLQWSSLKASDTAMYYCARSYYRSAWFAYWGQGTLVTVSL
VL: EIVMTQSPATLSVSPGERATLSCRASQSIGTSIHWYQQKPGQAPRLLIYYASESISGIPARFSGSGSGTEFTLTISSLQSEDFAVYYCQQSNNWPLTFGGGTKVEIK
Binder B2 has a Kd [1] of 2.75 nM, a koff [1] of 0.00125 s⁻¹ and a kon [1] of 455000 M⁻¹ s⁻¹.

B3: VH2 + VL3 (antibody, V domains shown)
VH: QVQLVQSGAEVKKPGASVKVSCKASGYAFSNFWMNWVRQAPGQGLEWMGQIYPGDGDTNYNGKFKGRVTMTRDTSTSTVYMELSSLRSEDTAVYYCARSYYRSAWFAYWGQGTLVTVSS
VL: B2 VL with M4L, V13L, E70D, Q79E, S80P
B3 showed a Kd [1] of 3.6 nM, a koff [1] of 0.00145 s⁻¹ and a kon [1] of 404000 M⁻¹ s⁻¹.

B4: VH1 + VL3 (antibody, V domains shown)
VH: B3 VH with A16S, M70I, R72A, T74K, V79A
VL: B2 VL with M4L, V13L, E70D, Q79E, S80P
Binder B4 has a Kd [1] of 5.23 nM, a koff [1] of 0.00222 s⁻¹ and a kon [1] of 425000 M⁻¹ s⁻¹.

B5: GO-702m (antibody, V domains shown)
VH: QVQLQQSGAELMKPGASVKISCKAIGFTFNYFWIEWVKQRPGHGLEWIGEILPGTGSTNYNEKFKGKAIFTADTSSNTAYMQLRSLTSEDSAVYYCVRYDYTSSMDYWGQGTSVTVSS
VL: DIVLTQSPGSLAVSLGQSVTISCRASESVQYSGTSLMHWYQQKPGQPPKLLIYGASNVETGVPARFSGSGSGTDFSLNIHPVEEDDIAMYFCQQNWKVPWTFGGGTKLEIK
notes: Mouse monoclonal antibody, detected with anti-mouse IgG kappa
B5 was tested, and the EC50 [2] was 0.6 nM.

B6: GO-702h wild-type (antibody)
heavy: not shown
light: EIVLTQSPATLSLSPGERATLSCRASESVQYSGTSLMHWYQQKPGQAPRLLIYGASNVETGIPARFSGSGSGTDFTLTISSLEPEDFAVYYCQQNWKVPWTFGQGTKVEIKRTVAAPSVFIFPPSDEQLKSGTASVVCLLNNFYPREAKVQWKVDNALQSGNSQESVTEQDSKDSTYSLSSTLTLSKADYEKHKVYACEVTHQGLSSPVTKSFNRGEC
notes: copies: 2 + 2
B6 was tested, and the Kd [3] was 1.55 nM, the koff [3] was 0.000844 s⁻¹ and the kon [3] was 545000 M⁻¹ s⁻¹.

B7: VH1 + VL4 (antibody, V domains shown)
VH: B3 VH with A16S, M70I, R72A, T74K, V79A
VL: AIQLTQSPSSLSASVGDRVTITCRASQSIGTSIHWYQQKPGKAPKLLIYYASESISGVPSRFSGSGSGTDFTLTISSLQPEDFATYYCQQSNNWPLTFGGGTKVEIK
B7 gave a Kd [1] of 7.13 nM, a koff [1] of 0.00315 s⁻¹ and a kon [1] of 442000 M⁻¹ s⁻¹.
